# According to publication PMC6612559, “Functional characterization of a novel arachidonic acid 12S‐lipoxygenase in the halotolerant bacterium Myxococcus fulvus exhibiting complex social living patterns” (MicrobiologyOpen, 2018):
# B1: MF-LOX1 (Myxococcus fulvus LOX1) (Myxococcus fulvus) (protein)
# chain: MTVEYKLRIRTSTKLGAGTDANISVVLVGTRGESGPHVLDKPFHNDFEAGAEDVYSVQASDDVGALLLLRFGNTGGIAADWLLDHAWVTAGERQWSFPFFRWVRAGATVDVLEGTAKLARHAGCEREATARRELLEARRRMYPWRPAEATEGLPGALDLSEAQPLPKDELYRGLTEGSYEVVIARTLAAIKLHLPLLSKAWNGLVDIFDFFKGLEVPRLAPRWQDDLEFARQAVQGINPLHITLIPQLPQGMPLTDEDVKGVLSPGTTLARALDSKRIFLLDFDILEDIPMYRKVDEDGVEERRWAPAARCLLYLDDLRQLRPLAIQLGRDGGKDPVFTPNDDTYDWLAAKIYLRCSEGNTHQMVAHALRTHFVAEPFVMATMRNLPDPHPVYKLLRRHFRYTLAINEGARKGLLAAGGVFDDFIATGGPDKGHLQLGKKGYQRWKLTDNRPREDLEHRGVLDPAVLPYYPYRDDALPLWDALEEYVGGVLRYFYPTDADLEGDTEMQHWWKDLTEHGLPVDKLPCRELSRVDDLVDILTTVVFTVSVQHAAVNYLQYEHYAFVPNAPLCMRREPPRQKGTLCAEDLPEMIPSRSQTLWQVAIGRALSSFGDDEEYLLNEGGWREEYFQEPQVRALRERFEQRLRAQRDVVAARNAGAQVPYTVLSPDRIPCGITV
# notes: full length, native protein 676 residues; N-terminal hexa-His tag kept, 32 extra N-terminal residues (pET28b); E. coli, Ni-agarose
# Substrate: CC/C=C\C/C=C\C/C=C\C/C=C\C/C=C\CCCC(=O)O
# Assay: purified protein
# Type: biochemical, Myxococcus fulvus
# Settings: PBS, no detergent; O2 co-substrate; fit over all substrate concentrations up to 200 µM
protein,measurement,value
B1,Km,70 µM
same,kcat,(3.1 ± 1.2) x 10^−2 s^-1
